# Data reported in IntAct's records for PubMed 19822759.
# Target: sc23a_mouse Sec23a (UniProt Q01405)
# Sequence (Q01405 whole entry): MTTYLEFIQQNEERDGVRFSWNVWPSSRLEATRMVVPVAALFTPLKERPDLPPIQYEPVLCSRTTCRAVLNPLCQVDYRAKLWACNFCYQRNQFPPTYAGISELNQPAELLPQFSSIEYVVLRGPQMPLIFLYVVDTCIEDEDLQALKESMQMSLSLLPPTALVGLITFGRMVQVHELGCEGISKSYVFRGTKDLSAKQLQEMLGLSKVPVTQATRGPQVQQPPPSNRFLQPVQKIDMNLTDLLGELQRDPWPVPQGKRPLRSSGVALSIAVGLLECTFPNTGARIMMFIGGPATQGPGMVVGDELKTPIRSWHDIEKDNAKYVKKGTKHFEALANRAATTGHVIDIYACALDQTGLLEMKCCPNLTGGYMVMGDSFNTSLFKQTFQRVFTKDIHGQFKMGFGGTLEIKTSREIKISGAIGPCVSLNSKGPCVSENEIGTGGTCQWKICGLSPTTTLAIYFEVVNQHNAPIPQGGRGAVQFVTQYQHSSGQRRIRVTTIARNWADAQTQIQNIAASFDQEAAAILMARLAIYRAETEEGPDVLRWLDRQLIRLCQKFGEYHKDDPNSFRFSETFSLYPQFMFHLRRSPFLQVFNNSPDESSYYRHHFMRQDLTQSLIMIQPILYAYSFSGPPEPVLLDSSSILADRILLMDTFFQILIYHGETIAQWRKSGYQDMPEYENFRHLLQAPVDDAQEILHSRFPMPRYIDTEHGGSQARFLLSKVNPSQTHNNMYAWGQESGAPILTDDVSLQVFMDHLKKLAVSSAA
substance,measurement,value
"Small COPII coat GTPase SAR1A (Homo sapiens), Q9NR31 T39N",effect of a mutation on the interaction,disrupting interaction
